The values below come from article PMC7710921 (Structure (London, England : 1993), 2020).

For assay [1], the target named is unlabelled hTBP (human TATA-box Binding Protein) (human) (UniProt P20226). The assay is described as follows: single-molecule two-colour nanometer co-localisation.
Assay [2] has as its target T1, His-tagged Rap74 (human, UniProt P35269 1-517).
T1 sequence (looked up): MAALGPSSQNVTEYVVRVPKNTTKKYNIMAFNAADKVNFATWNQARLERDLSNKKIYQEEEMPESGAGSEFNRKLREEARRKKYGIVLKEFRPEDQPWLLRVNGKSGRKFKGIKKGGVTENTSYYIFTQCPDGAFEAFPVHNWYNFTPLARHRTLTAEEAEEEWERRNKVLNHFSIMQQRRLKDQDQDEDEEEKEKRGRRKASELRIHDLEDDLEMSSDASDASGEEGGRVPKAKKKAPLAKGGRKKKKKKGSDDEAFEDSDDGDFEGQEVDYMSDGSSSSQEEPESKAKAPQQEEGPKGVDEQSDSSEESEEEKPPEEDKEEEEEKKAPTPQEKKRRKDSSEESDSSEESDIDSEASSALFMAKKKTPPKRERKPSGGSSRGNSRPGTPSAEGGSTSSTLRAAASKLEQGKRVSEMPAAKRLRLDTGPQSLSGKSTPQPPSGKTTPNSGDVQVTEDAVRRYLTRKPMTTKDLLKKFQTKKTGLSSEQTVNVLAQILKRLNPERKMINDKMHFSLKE
The assay can be described thus: reconstitution by refolding and Ni-NTA co-purification.

Take “Alexa647-labelled hTFIIA (from UniProt P52655 1-376; P52657 1-109) (complex)”: the percent of TFIIA spots co-localised with TATA-box DNA in the presence of TBP in assay [1] amounted to 45%.

B1: Rap30 (natural protein, human, UniProt P13984 1-249, looked up)
chain: MAERGELDLTGAKQNTGVWLVKVPKYLSQQWAKASGRGEVGKLRIAKTQGRTEVSFTLNEDLANIHDIGGKPASVSAPREHPFVLQSVGGQTLTVFTESSSDKLSLEGIVVQRAECRPAASENYMRLKRLQIEESSKPVRLSQQLDKVVTTNYKPVANHQYNIEYERKKKEDGKRARADKQHVLDMLFSAFEKHQYYNLKDLVDITKQPVVYLKEILKEIGVQNVKGIHKNTWELKPEYRHYQGEEKSD
For B1, the binding result in assay [2] was “binds”.
